According to US20250223369A1 (WISTAR INSTITUTE OF ANATOMY AND BIOLOGY, published 2025):

Assays:
[1] = target: T1, Siglec 9 on 293T cells (UniProt Q9Y336 18-463, limits assumed); assay: flow cytometry on Siglec 9 overexpressing HEK293T cells
T1 construct: whole, on cells
Text: BD LSRII flow cytometer was used for staining of cells. BD FACS Aria cell sorter (BD Biosciences) was used for the sorting of Siglec 7/FSHR stably expressing cells. Anti-human antibodies used were directly fluorochrome conjugated. […] For the non-conjugated primary antibodies, PE-secondary anti-human (H+L) (Invitrogen), PE/AF647—secondary anti-human F(ab′)₂ (Jackson ImmunoResearch Laboratories Inc) and APC—secondary anti-mouse IgG (Poly4053, BioLegend) were used. Live/Dead Violet viability kit (Invitrogen) was used to exclude dead cells from analysis.
Three mAbs targeting Siglec 7 were sequenced and studied in more detail. […] (FIG. 10B). […] Cells were labeled with DAPI (nuclei), GFP (Siglec 7) and Texas Red (Anti-Siglec 7).

[2] = target: T2, human Siglec 7 on cells (human, UniProt Q9Y286 19-467); assay: cell-based or functional assay
T2 sequence (Q9Y286 19-467): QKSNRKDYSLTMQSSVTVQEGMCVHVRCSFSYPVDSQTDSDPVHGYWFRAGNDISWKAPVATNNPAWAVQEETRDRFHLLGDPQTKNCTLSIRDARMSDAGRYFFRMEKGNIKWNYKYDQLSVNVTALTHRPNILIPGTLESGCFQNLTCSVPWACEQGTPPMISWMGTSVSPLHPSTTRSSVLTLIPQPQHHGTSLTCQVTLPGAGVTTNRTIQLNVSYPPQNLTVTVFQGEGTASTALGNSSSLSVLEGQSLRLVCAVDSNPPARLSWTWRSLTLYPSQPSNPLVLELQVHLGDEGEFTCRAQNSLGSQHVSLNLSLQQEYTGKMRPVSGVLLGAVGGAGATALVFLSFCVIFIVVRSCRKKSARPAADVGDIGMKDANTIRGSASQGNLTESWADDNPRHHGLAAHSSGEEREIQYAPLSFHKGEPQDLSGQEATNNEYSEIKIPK

[3] = target: T3, recombinant human Siglec-7 protein (human, UniProt Q9Y286 19-353, limits assumed); assay: SPR, DB7.2 and recombinant human Siglec-7 protein
T3 sequence (Q9Y286 19-353 limits assumed): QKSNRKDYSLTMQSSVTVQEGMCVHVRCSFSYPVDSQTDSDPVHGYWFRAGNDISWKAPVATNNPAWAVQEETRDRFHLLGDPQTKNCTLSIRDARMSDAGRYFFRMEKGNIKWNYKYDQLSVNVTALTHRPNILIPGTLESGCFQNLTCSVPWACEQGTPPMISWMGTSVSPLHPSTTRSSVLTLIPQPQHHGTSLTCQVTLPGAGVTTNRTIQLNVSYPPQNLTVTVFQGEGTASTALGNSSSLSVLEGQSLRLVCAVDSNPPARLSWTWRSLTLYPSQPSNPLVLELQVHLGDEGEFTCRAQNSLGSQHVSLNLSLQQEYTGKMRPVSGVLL

[4] = target: T3, recombinant human Siglec-7 protein; assay: SPR, titration of anti-Siglec-7 on recombinant human Siglec-7 protein
[5] = target: T2, human Siglec 7 on cells; assay: flow cytometry of human NK cells with sera of DMAb-electroporated mice, anti-human IgG

T1 sequence (Q9Y336 18-463 limits assumed): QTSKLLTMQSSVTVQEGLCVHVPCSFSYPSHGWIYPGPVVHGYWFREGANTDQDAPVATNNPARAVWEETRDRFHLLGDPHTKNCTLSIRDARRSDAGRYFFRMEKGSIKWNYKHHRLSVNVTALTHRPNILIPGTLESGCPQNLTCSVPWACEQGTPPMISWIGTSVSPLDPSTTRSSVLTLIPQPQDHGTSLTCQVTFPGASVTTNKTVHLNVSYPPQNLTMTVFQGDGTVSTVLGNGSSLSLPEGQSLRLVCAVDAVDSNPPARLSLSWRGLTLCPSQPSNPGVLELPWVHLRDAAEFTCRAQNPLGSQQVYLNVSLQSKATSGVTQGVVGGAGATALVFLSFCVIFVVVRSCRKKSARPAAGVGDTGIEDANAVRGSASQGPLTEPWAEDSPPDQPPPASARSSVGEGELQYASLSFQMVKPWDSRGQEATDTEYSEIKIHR

B1: DB-S7-2 anti-Siglec 7 antibody (antibody, V domains shown)
VH: QVQLVESGGGVVQPGRSLRLSCAASGFTFRTDAMHWVRQAPGKGLEWVAVIWYDGSIKYHADSVKGRFTISRDNSKNTLYLEMNSLRAEDTAVYYCARDRSNSLDHWGQGILVSVSS
VL: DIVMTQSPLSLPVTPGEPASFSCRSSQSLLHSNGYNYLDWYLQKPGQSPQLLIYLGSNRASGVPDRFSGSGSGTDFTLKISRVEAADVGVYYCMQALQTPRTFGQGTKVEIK
notes: Raised in H2L2 mice (hybridoma clone in the first screens), then expressed as human IgG1 HC and LC from pVax1 in Expi293F cells or in mice (DMAb); also called DB7.2; DB-S7-2 DMAb
binding result [1]: no binding | killing of OVISE cells with human PBMCs (cell index vs dose), IC50 [2]: 82.7 nM | killing of PEO4 cells with human PBMCs (xCELLigence), EC50 [2]: 68.9 nM | koff [3]: 3.6e-05 s⁻¹ | kon [3]: 830000 M⁻¹ s⁻¹ | t1/2 [3]: 5.33 h | Kd [4]: 0.044 nM

B2: DB7.2_TM Mod (antibody, V domains shown)
VH: B1 VH
VL: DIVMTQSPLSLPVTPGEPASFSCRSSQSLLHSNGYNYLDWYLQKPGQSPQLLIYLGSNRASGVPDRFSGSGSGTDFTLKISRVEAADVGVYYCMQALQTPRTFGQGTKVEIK
killing of OVISE cells with human PBMCs (cell index vs dose), IC50 [2]: 192 nM

B3: DB-S7-1 anti-Siglec 7 antibody (antibody, V domains shown)
VH: B1 VH
VL: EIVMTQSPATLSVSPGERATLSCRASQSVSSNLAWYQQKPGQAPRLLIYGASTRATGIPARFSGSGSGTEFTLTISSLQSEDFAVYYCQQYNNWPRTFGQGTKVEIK
notes: Raised in H2L2 mice (hybridoma clone in the first screens), then expressed as human IgG1 HC and LC from pVax1 in Expi293F cells or in mice (DMAb); also called DB7.1; DB-S7-1 DMAb
binding result [1]: no binding | binding result [5]: binds

B4: DB-S7-7 anti-Siglec 7 antibody (antibody, V domains shown)
VH: B1 VH
VL: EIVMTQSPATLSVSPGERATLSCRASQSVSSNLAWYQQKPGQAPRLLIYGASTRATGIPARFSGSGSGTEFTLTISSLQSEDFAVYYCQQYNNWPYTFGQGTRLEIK
notes: Raised in H2L2 mice (hybridoma clone in the first screens), then expressed as human IgG1 HC and LC from pVax1 in Expi293F cells or in mice (DMAb); also called DB7.7; DB-S7-7 DMAb
binding result [1]: no binding
